Measurements published in publication PMC9482650, “Quantitative fragmentomics allow affinity mapping of interactomes” (Nature Communications, 2022).

T1: APBA1_2, Q02410
T1 sequence (Q02410 742-832, limits assumed, looked up): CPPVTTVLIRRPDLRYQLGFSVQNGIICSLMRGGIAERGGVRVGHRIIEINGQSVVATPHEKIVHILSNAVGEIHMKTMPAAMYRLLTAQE

T2: CARD11, Q9BXL7
T2 sequence (Q9BXL7 662-765, limits assumed, looked up): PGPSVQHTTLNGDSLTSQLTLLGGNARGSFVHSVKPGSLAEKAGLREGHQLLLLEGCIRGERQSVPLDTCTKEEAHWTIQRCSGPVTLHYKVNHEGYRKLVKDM

T3: LRRC7, Q96NW7
T3 sequence (Q96NW7 1440-1537, limits assumed, looked up): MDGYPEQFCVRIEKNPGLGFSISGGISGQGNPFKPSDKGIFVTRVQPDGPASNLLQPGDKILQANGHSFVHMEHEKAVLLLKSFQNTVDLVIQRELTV

T4: MPP6, Q9NZW5
T4 sequence (Q9NZW5 125-219, limits assumed, looked up): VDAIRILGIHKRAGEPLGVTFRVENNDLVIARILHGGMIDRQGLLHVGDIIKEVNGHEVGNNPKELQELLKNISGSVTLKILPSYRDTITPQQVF

T5: NHERF3_1, Q5T2W1
T5 sequence (Q5T2W1 4-100, limits assumed, looked up): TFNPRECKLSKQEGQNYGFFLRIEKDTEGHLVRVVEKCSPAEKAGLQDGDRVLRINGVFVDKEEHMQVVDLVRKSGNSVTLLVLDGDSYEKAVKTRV

T6: NHERF3_3, Q5T2W1
T6 sequence (Q5T2W1 238-333, limits assumed, looked up): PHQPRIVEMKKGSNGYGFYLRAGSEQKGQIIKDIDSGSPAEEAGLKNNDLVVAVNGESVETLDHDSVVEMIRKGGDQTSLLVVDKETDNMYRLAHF

T7: PARD3B_1, Q8TEW8
T7 sequence (Q8TEW8 196-299, limits assumed, looked up): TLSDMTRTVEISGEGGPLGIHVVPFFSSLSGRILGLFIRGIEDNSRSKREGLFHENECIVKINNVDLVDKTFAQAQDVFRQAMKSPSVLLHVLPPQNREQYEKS

T8: SNTG1, Q9NSN8
T8 sequence (Q9NSN8 52-150, limits assumed, looked up): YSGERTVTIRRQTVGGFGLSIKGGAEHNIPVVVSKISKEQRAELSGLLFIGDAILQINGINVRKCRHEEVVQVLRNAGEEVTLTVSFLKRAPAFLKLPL

T9: SNTG2, Q9NY99
T9 sequence (Q9NY99 68-166, limits assumed, looked up): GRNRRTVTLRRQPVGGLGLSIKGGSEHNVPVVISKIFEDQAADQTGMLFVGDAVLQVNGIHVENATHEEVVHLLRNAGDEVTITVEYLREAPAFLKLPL


What was measured:
Test in all cases: holdup assay
Design in all cases: key: below the threshold = too weak to quantify, mostly under pKd 3.1 to 4
Details in all cases: plain residues with an end cap or a label only (N-terminal biotin on a linker: ado-ado)
AHNAK1, Q09666 = target: AHNAK1, Q09666
AHNAK1, Q09666, sequence (Q09666 4-100): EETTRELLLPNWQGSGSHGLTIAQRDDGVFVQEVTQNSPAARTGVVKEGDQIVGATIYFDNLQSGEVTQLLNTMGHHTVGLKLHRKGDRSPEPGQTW

APBA1_2, Q02410 = target: T1, APBA1_2, Q02410
CARD11, Q9BXL7 = target: T2, CARD11, Q9BXL7
DLG1_3, Q12959 = target: DLG1_3, Q12959
DLG1_3, Q12959, sequence (Q12959 457-571): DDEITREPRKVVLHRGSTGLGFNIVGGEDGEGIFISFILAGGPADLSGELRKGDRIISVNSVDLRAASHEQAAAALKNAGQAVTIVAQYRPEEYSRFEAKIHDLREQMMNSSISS

DLG2_2, Q15700 = target: DLG2_2, Q15700
DLG2_2, Q15700, sequence (Q15700 189-283): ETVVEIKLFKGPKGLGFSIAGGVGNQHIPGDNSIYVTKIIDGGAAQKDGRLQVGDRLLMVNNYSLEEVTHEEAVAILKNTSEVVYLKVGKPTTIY

DLG5_1, Q8TDM6 = target: DLG5_1, Q8TDM6
DLG5_1, Q8TDM6, sequence (Q8TDM6 617-713): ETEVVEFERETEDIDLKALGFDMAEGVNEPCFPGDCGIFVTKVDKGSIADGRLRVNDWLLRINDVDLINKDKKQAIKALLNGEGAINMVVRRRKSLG

GRASP, Q7Z6J2 = target: GRASP, Q7Z6J2
GRASP, Q7Z6J2, sequence (Q7Z6J2 96-193): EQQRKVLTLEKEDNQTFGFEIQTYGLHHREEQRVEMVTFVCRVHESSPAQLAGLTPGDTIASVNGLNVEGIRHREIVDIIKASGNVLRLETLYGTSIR

GRIP2_6, Q9C0E4 = target: GRIP2_6, Q9C0E4
GRIP2_6, Q9C0E4, sequence (Q9C0E4 648-740): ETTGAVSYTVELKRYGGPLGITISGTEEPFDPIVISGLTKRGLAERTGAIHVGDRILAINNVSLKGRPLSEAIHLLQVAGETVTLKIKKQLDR

IL16_1, Q14005 = target: IL16_1, Q14005
IL16_1, Q14005, sequence (Q14005 210-306): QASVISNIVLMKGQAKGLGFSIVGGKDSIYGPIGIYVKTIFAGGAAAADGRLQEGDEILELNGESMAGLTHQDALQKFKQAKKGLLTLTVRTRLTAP

IL16_4, Q14005 = target: IL16_4, Q14005
IL16_4, Q14005, sequence (Q14005 1229-1329): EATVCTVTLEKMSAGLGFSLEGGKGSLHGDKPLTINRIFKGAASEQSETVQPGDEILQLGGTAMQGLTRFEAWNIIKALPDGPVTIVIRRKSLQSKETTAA

Inadl_3, Q8NI35 = target: Inadl_3, Q8NI35
Inadl_3, Q8NI35, sequence (Q8NI35 359-469): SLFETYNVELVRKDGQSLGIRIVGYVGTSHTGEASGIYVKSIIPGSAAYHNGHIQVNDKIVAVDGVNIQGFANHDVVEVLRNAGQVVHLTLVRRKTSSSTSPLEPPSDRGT

LDB3, O75112 = target: LDB3, O75112
LDB3, O75112, sequence (O75112 1-94): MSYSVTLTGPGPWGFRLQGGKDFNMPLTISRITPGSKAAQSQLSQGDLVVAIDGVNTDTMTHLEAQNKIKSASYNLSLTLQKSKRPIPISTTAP

LIMK2, P53671 = target: LIMK2, P53671
LIMK2, P53671, sequence (P53671 143-248): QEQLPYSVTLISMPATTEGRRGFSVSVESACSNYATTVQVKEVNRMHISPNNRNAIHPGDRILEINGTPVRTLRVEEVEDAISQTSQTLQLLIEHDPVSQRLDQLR

LNX1_1, Q8TBB1 = target: LNX1_1, Q8TBB1
LNX1_1, Q8TBB1, sequence (Q8TBB1 261-371): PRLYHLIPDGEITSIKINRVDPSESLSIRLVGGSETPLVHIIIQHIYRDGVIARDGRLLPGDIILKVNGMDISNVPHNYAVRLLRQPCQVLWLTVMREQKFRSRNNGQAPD

LRRC7, Q96NW7 = target: T3, LRRC7, Q96NW7
MAGI2_3, Q86UL8 = target: MAGI2_3, Q86UL8
MAGI2_3, Q86UL8, sequence (Q86UL8 600-682): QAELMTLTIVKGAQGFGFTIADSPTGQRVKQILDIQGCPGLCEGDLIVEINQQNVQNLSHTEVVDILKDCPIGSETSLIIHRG

MPP6, Q9NZW5 = target: T4, MPP6, Q9NZW5
NHERF3_1, Q5T2W1 = target: T5, NHERF3_1, Q5T2W1
NHERF3_3, Q5T2W1 = target: T6, NHERF3_3, Q5T2W1
NHERF4_4, Q86UT5 = target: NHERF4_4, Q86UT5
NHERF4_4, Q86UT5, sequence (Q86UT5 464-550): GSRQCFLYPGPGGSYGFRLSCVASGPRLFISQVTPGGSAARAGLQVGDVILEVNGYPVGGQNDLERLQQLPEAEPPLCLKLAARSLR

PARD3B_1, Q8TEW8 = target: T7, PARD3B_1, Q8TEW8
PICK1, Q9NRD5 = target: PICK1, Q9NRD5
PICK1, Q9NRD5, sequence (Q9NRD5 17-115): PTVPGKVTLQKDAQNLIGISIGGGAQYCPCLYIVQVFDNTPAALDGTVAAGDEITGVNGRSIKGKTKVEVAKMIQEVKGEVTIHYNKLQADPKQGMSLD

PTPN3, P26045 = target: PTPN3, P26045
PTPN3, P26045, sequence (P26045 505-587): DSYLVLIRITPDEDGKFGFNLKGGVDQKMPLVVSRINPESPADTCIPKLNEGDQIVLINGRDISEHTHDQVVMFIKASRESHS

SCRIB_1, Q14160 = target: SCRIB_1, Q14160
SCRIB_1, Q14160, sequence (Q14160 718-814): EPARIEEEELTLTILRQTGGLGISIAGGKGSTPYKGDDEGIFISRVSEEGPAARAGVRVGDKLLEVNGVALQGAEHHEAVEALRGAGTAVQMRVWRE

SCRIB_3, Q14160 = target: SCRIB_3, Q14160
SCRIB_3, Q14160, sequence (Q14160 999-1103): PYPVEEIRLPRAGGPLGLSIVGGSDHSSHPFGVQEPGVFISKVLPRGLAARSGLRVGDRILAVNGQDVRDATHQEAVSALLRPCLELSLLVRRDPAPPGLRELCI

SNTG1, Q9NSN8 = target: T8, SNTG1, Q9NSN8
SNTG2, Q9NY99 = target: T9, SNTG2, Q9NY99
TJP1_3, Q07157 = target: TJP1_3, Q07157
TJP1_3, Q07157, sequence (Q07157 416-512): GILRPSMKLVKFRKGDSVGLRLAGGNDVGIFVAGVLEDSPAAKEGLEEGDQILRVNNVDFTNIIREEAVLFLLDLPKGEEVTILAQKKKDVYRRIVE

Binder	pKd (AHNAK1, Q09666)	pKd (APBA1_2, Q02410)	pKd (CARD11, Q9BXL7)	pKd (DLG1_3, Q12959)	pKd (DLG2_2, Q15700)	pKd (DLG5_1, Q8TDM6)	pKd (GRASP, Q7Z6J2)	pKd (GRIP2_6, Q9C0E4)	pKd (IL16_1, Q14005)	pKd (IL16_4, Q14005)	pKd (Inadl_3, Q8NI35)	pKd (LDB3, O75112)	pKd (LIMK2, P53671)	pKd (LNX1_1, Q8TBB1)	pKd (LRRC7, Q96NW7)	pKd (MAGI2_3, Q86UL8)	pKd (MPP6, Q9NZW5)	pKd (NHERF3_1, Q5T2W1)	pKd (NHERF3_3, Q5T2W1)	pKd (NHERF4_4, Q86UT5)	other results
DSEEELPTRL [GRK6, P43250]	below the threshold	4.16	below the threshold	3.73	below the threshold	below the threshold	4.16	below the threshold	below the threshold	below the threshold	below the threshold	below the threshold	below the threshold	3.82	below the threshold	below the threshold	below the threshold	4.06	3.7	below the threshold	pKd (PARD3B_1, Q8TEW8): 4.51; pKd (PICK1, Q9NRD5): 4.25; pKd (PTPN3, P26045): 3.77; pKd (SCRIB_1, Q14160): 3.53; pKd (SCRIB_3, Q14160): 3.53; pKd (SNTG1, Q9NSN8): below the threshold; pKd (SNTG2, Q9NY99): 3.57; pKd (TJP1_3, Q07157): below the threshold
RDYTQSSSSL [GRM5, P41594]	below the threshold	below the threshold	below the threshold	below the threshold	below the threshold	below the threshold	4.33	below the threshold	below the threshold	below the threshold	below the threshold	below the threshold	below the threshold	below the threshold	below the threshold	below the threshold	below the threshold	5.02	below the threshold	below the threshold	pKd (PARD3B_1, Q8TEW8): 3.82; pKd (PICK1, Q9NRD5): 4.11; pKd (PTPN3, P26045): 4.27; pKd (SCRIB_1, Q14160): below the threshold; pKd (SCRIB_3, Q14160): 4.05; pKd (SNTG1, Q9NSN8): below the threshold; pKd (SNTG2, Q9NY99): below the threshold; pKd (TJP1_3, Q07157): below the threshold

More lines, main results first:

pKd (AHNAK1, Q09666)	pKd (APBA1_2, Q02410)	pKd (CARD11, Q9BXL7)	pKd (DLG1_3, Q12959)	pKd (DLG2_2, Q15700)	pKd (DLG5_1, Q8TDM6)	pKd (GRASP, Q7Z6J2)	pKd (GRIP2_6, Q9C0E4)	pKd (IL16_1, Q14005)	pKd (IL16_4, Q14005)	pKd (Inadl_3, Q8NI35)	pKd (LDB3, O75112)	pKd (LIMK2, P53671)	pKd (LNX1_1, Q8TBB1)	pKd (LRRC7, Q96NW7)	pKd (MAGI2_3, Q86UL8)	pKd (MPP6, Q9NZW5)	pKd (NHERF3_1, Q5T2W1)	pKd (NHERF3_3, Q5T2W1)	pKd (NHERF4_4, Q86UT5)	Binder	other results
below the threshold	below the threshold	below the threshold	below the threshold	below the threshold	below the threshold	4.72	below the threshold	below the threshold	below the threshold	below the threshold	below the threshold	below the threshold	below the threshold	below the threshold	below the threshold	3.53	below the threshold	below the threshold	below the threshold	FVFESRKEIL [TBPL1, P62380]	pKd (PARD3B_1, Q8TEW8): 4.12; pKd (PICK1, Q9NRD5): below the threshold; pKd (PTPN3, P26045): below the threshold; pKd (SCRIB_1, Q14160): below the threshold; pKd (SCRIB_3, Q14160): below the threshold; pKd (SNTG1, Q9NSN8): below the threshold; pKd (SNTG2, Q9NY99): below the threshold; pKd (TJP1_3, Q07157): below the threshold
below the threshold	below the threshold	below the threshold	below the threshold	below the threshold	below the threshold	below the threshold	below the threshold	below the threshold	below the threshold	below the threshold	below the threshold	below the threshold	below the threshold	below the threshold	below the threshold	3.77	below the threshold	below the threshold	below the threshold	KPDKQEEFYA [SDC3, O75056]	pKd (PARD3B_1, Q8TEW8): 4.65; pKd (PICK1, Q9NRD5): below the threshold; pKd (PTPN3, P26045): 3.8; pKd (SCRIB_1, Q14160): below the threshold; pKd (SCRIB_3, Q14160): below the threshold; pKd (SNTG1, Q9NSN8): below the threshold; pKd (SNTG2, Q9NY99): below the threshold; pKd (TJP1_3, Q07157): below the threshold
below the threshold	below the threshold	below the threshold	below the threshold	below the threshold	below the threshold	below the threshold	below the threshold	below the threshold	below the threshold	below the threshold	below the threshold	below the threshold	below the threshold	below the threshold	below the threshold	below the threshold	3.74	below the threshold	below the threshold	PLATCDETSI [SEMA4F, O95754]	pKd (PARD3B_1, Q8TEW8): below the threshold; pKd (PICK1, Q9NRD5): below the threshold; pKd (PTPN3, P26045): 4.72; pKd (SCRIB_1, Q14160): 4.92; pKd (SCRIB_3, Q14160): 4.81; pKd (SNTG1, Q9NSN8): 4.53; pKd (SNTG2, Q9NY99): 4.55; pKd (TJP1_3, Q07157): below the threshold
